± gives the standard deviation of the averaged measurements.
test system: ATP; experiment: switch fluorescence ratio, 500 uM ATP over buffer (Cy3 cluster intensity, sum of 5 cycles each) (fold (ratio)); higher = stronger signal-on switching upon ATP binding; sequences stand for … in TCGTCGGCAGCGTCAGATGTGTATAAGAGACAGTTTTTTTTTTTTTTTTTTTTTTTTT…TC; details: aptamer strand: ATP DNA aptamer (quencher-CACCTGGGGGAGTATTGCGGAGGAAGG + anchor), 100 nM annealed; ATP concentration: 500 uM
How it was run: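 Per cluster, summed Cy3 intensity from the target cycles was divided by that from the buffer cycles to give the fluorescence ratio, then averaged per switch-domain sequence. Clusters outside 100-1000 RFU were excluded. The Cy3-labelled switching-strand clusters, on a modified Illumina MiSeq flow-cell, were annealed to 100 nM quencher-labelled ATP aptamer and imaged in selection buffer, then after 15 min with 500 uM ATP at 22 °C, for five cycles with NaOH stripping and re-annealing between them.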
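Note: ATP exposure 15 min at 22 °C before imaging.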

In order of rising switch fluorescence ratio:
1. TTGAGGCCCG  0.9375 ± 0.0031
2. TTCTTTCGCG  0.9467 ± 0.0023
3. TTCTGTGGGT  0.955 ± 0.057
4. TTCTGGATGT  0.956 ± 0.023
5. TTGGATATGT  0.9573 ± 0.0047
6. TTGACTTTGG  0.959 ± 0.02
7. TTGAAAATGT  0.96 ± 0.0076
8. TTGCTGAGGA  0.962 ± 0.015
9. TTCGTTCTTG  0.9641 ± 0.0076
10. TTCGTTTCGA  0.965 ± 0.042
11. TTGAATTAGA  0.965 ± 0.025
12. TTCGTTGGTG  0.969 ± 0.035
13. TTGATAGTCG  0.969 ± 0.024
14. TTGATATCAT  0.97 ± 0.049
15. TTCTTATGAT  0.9721 ± 0.0011
16. TTGAGAGGAT  0.972 ± 0.021
17. TTCTGGTTTT  0.9727 ± 0.0026
18. TTCTTTTTCG  0.973 ± 0.056
19. TTGAGTTGGG  0.973 ± 0.041
20. TTGCTTTAGA  0.974 ± 0.012
21. TTCTGGTTTG  0.975 ± 0.043
22. TTGATGTTCG  0.976 ± 0.015
23. TTCGTATCGG  0.978 ± 0.012
24. TTCGGTCTAA  0.979 ± 0.023
25. TTGAAAGTG  0.9785 ± 0.0043
26. TTGAATGGTC  0.979 ± 0.081
27. TTGAGGGCCT  0.979 ± 0.021
28. TTGAGTGGGC  0.979 ± 0.031
29. TTCGGTTCGT  0.98 ± 0.066
30. TTGCCATCCT  0.98 ± 0.042
31. TTGCGTGCCG  0.98 ± 0.11
32. TTGGATAGGT  0.981 ± 0.027
33. TTGACGCGTG  0.982 ± 0.023
34. TTGATTAGTT  0.982 ± 0.036
35. TTCTATGGCA  0.984 ± 0.043
36. TTCGTTGATG  0.985 ± 0.016
37. TTCGTTCCAT  0.986 ± 0.012
38. TTGAATTTAG  0.986 ± 0.015
39. TTGGAACATA  0.986 ± 0.03
40. TTCGGGTAAG  0.987 ± 0.043
41. TTCGTTGTAA  0.98683 ± 0.00096
42. TTCTGGTTGT  0.987 ± 0.046
43. TTGAGGATAG  0.987 ± 0.021
44. TTGATGACGG  0.9872 ± 0.0016
45. TTGATGGTGG  0.987 ± 0.056
46. TTGATTGTTT  0.987 ± 0.016
47. TTGAGCGGGG  0.9876 ± 0.005
48. TTGAGTGGGA  0.989 ± 0.02
49. TTGATTGGGC  0.989 ± 0.025
50. TTGGCATAGT  0.989 ± 0.031
51. TTCGGGGTCC  0.99 ± 0.028
52. TTCGGGTCGG  0.991 ± 0.026
53. TTCGTAGTTG  0.992 ± 0.054
54. TTCGTTCGGG  0.992 ± 0.041
55. TTGATTCTGA  0.992 ± 0.034
56. TTGCGGCTTG  0.9923 ± 0.0088
57. TTGGATTTTT  0.992 ± 0.041
58. TTCGGGGGAA  0.993 ± 0.075
59. TTGATTTACT  0.993 ± 0.03
60. TTCGGGCGTG  0.994 ± 0.024
61. TTCGGGTTTA  0.994 ± 0.055
62. TTCGTATAAG  0.9936 ± 0.0076
63. TTGAACGTGT  0.994 ± 0.042
64. TTCGTGCTTT  0.995 ± 0.035
65. TTCGTGTCAG  0.995 ± 0.023
66. TTGCCAGGGA  0.995 ± 0.014
67. TTCTATATTG  0.996 ± 0.023
68. TTGAAATAG  0.9957 ± 0.0097
69. TTGAGGGGTG  0.996 ± 0.037
70. TTGATCCAGC  0.9958 ± 0.0068
71. TTGGATAGAG  0.996 ± 0.013
72. TTGATTTGTG  0.997 ± 0.012
73. TTCTAGTAA  0.998 ± 0.021
74. TTGAGGGTAT  0.998 ± 0.023
75. TTCGTCAGTT  0.9992 ± 0.0073
76. TTCGGGCGAA  1 ± 0.029
77. TTCTATTTCG  1 ± 0.019
78. TTCTGTGGGA  1.002 ± 0.006
79. TTGAAATTTT  1.001 ± 0.0077
80. TTGAATTTGA  1 ± 0.028
81. TTGACTATCG  1 ± 0.076
82. TTGAGATACG  1.001 ± 0.0057
83. TTGAGCCGGT  1 ± 0.045
84. TTGAGGTTGG  1 ± 0.026
85. TTGAGTTTAA  1.003 ± 0.0065
86. TTGATAATAG  1 ± 0.024
87. TTGATGAACA  1 ± 0.024
88. TTGATTGAGG  1 ± 0.017
89. TTGATTGGAT  1 ± 0.014
90. TTGATTTTAG  1 ± 0.031
91. TTGCGGTAGC  1 ± 0.016
92. TTGCGTTTTT  1 ± 0.024
93. TTGCTATTTC  1 ± 0.058
94. TTGGATGGGA  1 ± 0.034
95. TTGGCAGATT  1.004 ± 0.0061
96. TTCGGGCCGG  1.01 ± 0.033
97. TTCGGGCGTC  1.01 ± 0.039
98. TTCGGGGGAT  1.01 ± 0.02
99. TTCGGGGGCT  1.01 ± 0.071
100. TTCGGGGTCT  1.014 ± 0.0098
101. TTCGGGTATG  1.01 ± 0.013
102. TTCGGTTGTA  1.009 ± 0.0067
103. TTCGTGCCAG  1.01 ± 0.043
104. TTCGTTGTGC  1.01 ± 0.02
105. TTCGTTTCGG  1.01 ± 0.037
106. TTCTACGGTC  1.01 ± 0.03
107. TTCTATTACC  1.01 ± 0.032
108. TTCTCAGAGG  1.01 ± 0.029
109. TTCTCATTTT  1.01 ± 0.029
110. TTCTCTATGT  1.01 ± 0.035
111. TTCTGTTAAC  1.01 ± 0.025
112. TTCTTTTTTT  1.01 ± 0.032
113. TTGAAATAGT  1.01 ± 0.024
114. TTGAAATTAA  1.01 ± 0.025
115. TTGACTAAGG  1.01 ± 0.044
116. TTGAGAAGTT  1.01 ± 0.021
117. TTGAGAGTCT  1.01 ± 0.18
118. TTGAGGGGGA  1.01 ± 0.014
119. TTGATATGAC  1.014 ± 0.0094
120. TTGCATGGGT  1.01 ± 0.039
121. TTGCGTGCTT  1.01 ± 0.027
122. TTGCTATAGA  1.01 ± 0.017
123. TTGCTATATT  1.01 ± 0.032
124. TTGCTGTGTG  1.011 ± 0.0042
125. TTGGAAGGGC  1.012 ± 0.0063
126. TTGGAGGGGA  1.01 ± 0.018
127. TTGGATTAAC  1.01 ± 0.029
128. TTGGCCCGGG  1.01 ± 0.059
129. TTCGGGTTGG  1.02 ± 0.015
130. TTCGTATATT  1.02 ± 0.017
131. TTCGTGACTT  1.02 ± 0.025
132. TTCGTGGTGA  1.02 ± 0.019
133. TTCGTTATTG  1.02 ± 0.026
134. TTCTAGGGGG  1.02 ± 0.056
135. TTCTAGGTCT  1.02 ± 0.037
136. TTCTCTTTTT  1.02 ± 0.036
137. TTGAAGGCGG  1.02 ± 0.024
138. TTGACTTGTT  1.02 ± 0.068
139. TTGAGAAAGG  1.02 ± 0.025
140. TTGAGGACAG  1.02 ± 0.025
141. TTGAGGGAGA  1.02 ± 0.058
142. TTGAGGTTAT  1.02 ± 0.061
143. TTGATTATTA  1.02 ± 0.045
144. TTGCTCTGGA  1.02 ± 0.015
145. TTGGAGATTT  1.02 ± 0.022
146. TTGGATTTGG  1.02 ± 0.051
147. TTGGCATCCT  1.0176 ± 0.00051
148. TTGGCATTTG  1.02 ± 0.064
149. TTCGGGTGCC  1.03 ± 0.057
150. TTCGTACGGG  1.03 ± 0.021
151. TTCGTCAACA  1.03 ± 0.046
152. TTCGTCTGGG  1.03 ± 0.065
153. TTGAAATAGG  1.03 ± 0.011
154. TTGAGATCCT  1.027 ± 0.0084
155. TTGATAAAAG  1.03 ± 0.08
156. TTGATCGGGC  1.03 ± 0.052
157. TTGGAGGAGA  1.029 ± 0.005
158. TTGGCAACTT  1.03 ± 0.03
159. TTCTACAGTA  1.036 ± 0.0059
160. TTCTGCGGGG  1.04 ± 0.046
161. TTCTTCACGG  1.04 ± 0.035
162. TTGACACTGG  1.04 ± 0.02
163. TTGACGATGA  1.04 ± 0.025
164. TTGAGTCAAT  1.044 ± 0.0078
165. TTGCGAGGTG  1.039 ± 0.0055
166. TTGCGTATGA  1.04 ± 0.063
167. TTGCTTTTGG  1.04 ± 0.11
168. TTGGAAATTA  1.036 ± 0.0082
169. TTCGGGAGGT  1.05 ± 0.13
170. TTCGGTTAGC  1.05 ± 0.041
171. TTCTTAACAT  1.054 ± 0.01
172. TTGAAGGGTG  1.05 ± 0.11
173. TTGACGGTGA  1.06 ± 0.033
174. TTGCAATTTA  1.06 ± 0.033
175. TTCGGGATAG  1.07 ± 0.1
176. TTCGTTAAGC  1.07 ± 0.1
177. TTCTGAGCTT  1.07 ± 0.025
178. TTGACATCCC  1.07 ± 0.032
179. TTGACGAGGT  1.07 ± 0.078
180. TTGATAGACG  1.07 ± 0.042
181. TTGCTACATA  1.07 ± 0.011
182. TTGGACGCCG  1.07 ± 0.041
183. TTGAAGGTGG  1.08 ± 0.12
184. TTGACAGTAA  1.08 ± 0.014
185. TTGGCCACCG  1.08 ± 0.096
186. TTCTTCGGAT  1.09 ± 0.11
187. TTCGGGAATT  1.1 ± 0.11
188. TTGGCAAAGG  1.1 ± 0.19
189. TTGCAGGGGT  1.14 ± 0.25
190. TTGCAGGGTG  1.17 ± 0.035
191. TTGCGATATT  1.27 ± 0.36
192. TTGGAGAAA  1.27 ± 0.36
193. TTGAAAGGTG  1.29 ± 0.24
194. TTGATGCTAT  1.32 ± 0.43
195. TTCGTTTGCA  1.38 ± 0.64
196. TTCTTTTTGA  1.43 ± 0.59
197. TTGAGAAAGT  1.47 ± 0.68
198. TTCTTACTTT  1.48 ± 0.64
199. TTCTGCTTAG  2.04 ± 0.039
200. TTCTCAGCAA  2.43 ± 0.64
